# Laboratory results taken from patent CN116178530A.
# Target: SARS-CoV-2活病毒的刺突蛋白 (SARS-CoV-2) (UniProt P0DTC2)
# Assay: cell-based or functional assay
substance,measurement,value
CB6 (antibody),"活病毒中和 ND50 (CPE抑制, Vero E6细胞)",0.256 µg/mL
